Where two headings read alike, the source gives them in different places.
Tests used:
Assay in all cases: SAXS
AIF H454A mutant = AIF H454A mutant (UniProt O95831)
[1] = molecular target: AIF R529A mutant (Cβ-clasp) (UniProt O95831)
[2] = molecular target: AIF R529A mutant (Cβ-clasp) (UniProt O95831); remark: listed apart in the source

stoichiometry N (AIF H454A mutant)	stoichiometry N [1]	stoichiometry N [2]	Substance
2	–	–	AIF H454A mutant (from UniProt O95831 55-613) (natural protein)
–	2	2	AIF R529A mutant (Cβ-clasp) (from UniProt O95831 55-613) (natural protein)

Source: article PMC10292688
